Numbering of substitutions follows the chain as printed.
T1: human ACTH 1-39 (human, not fully specified; N-terminal biotin in the ELISA and HTRF binding assays (p-1487, p-1488); 125I on Tyr23 in Example 9 (p-1542); unlabelled in SPR. Letters unchanged.)
T1 peptide: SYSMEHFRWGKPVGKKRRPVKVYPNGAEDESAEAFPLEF

T2: human alpha-MSH (ACTH 1-13) (human, not fully specified; ends and bridges not checked)
T2 peptide: Ac-SYSMEHFRWGKPV-NH2

T3: ACTH 1-24 (human)
T3 peptide: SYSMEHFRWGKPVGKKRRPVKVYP

B1: Ab1 (antibody, V domains shown)
VH: QSVKESGGRLVTPGTPLTLTCTVSGFSLSNYDMIWVRQAPGKGLESIGMIYDDGDTYYASWAKGRFTISKTSTTVDLKIISPTTEDTATYFCVKGVSNHWGPGTLVTVSS
VL: DVVMTQTPASVEAAVGGTVTIKCQASQSISSYLAWYQQKPGQPPKLLIYSASTLASGVPSRFKGRGSGTEFTLTISDLECADAATYYCQSYDGSSGSSYGVGFGGGTEVVVKR
notes: Full-length rabbit/human chimeric antibody, HEK-293
B2: Ab10 (antibody, V domains shown)
VH: B1 VH with K4E, N30S, Y31A, S60T, N98S, H99V, P102Q
VL: B1 VL with K22N, Q27E, S28N, S30Y, S31R, Y32S, R65S, G96S
B3: Ab3 (antibody, V domains shown)
VH: QSLEESGGRLVTPGTPLTLTCTVSGSSLSNFDMIWVRQAPGKGLESIGIIYDFGSTYYASWAKGRFTISRTSSTTVDLKIISPTIEDTATYFCVKGVSNIWGQGTLVTVSS
VL: B1 VL with Q27E, S28D, Y32N, P40L, R65S, T74A, G96S, V101I
B4: Ab11 (antibody, V domains shown)
VH: QSLEESGGRLVTPGTSLTLTCTASGFSLSAYDILWVRQAPGKGLESIGMMYDDGDTYYATWAKGRFIISRTSTTMDLKIISPTTEDTATYFCVKGVSNIWGQGTLVTVSS
VL: B1 VL with V2I, T7I, S30D, Y32S, R65S, S76G, G96S, S98Y, V101I
B5: Ab12 (antibody, V domains shown)
VH: B1 VH with K4E, F26S, N30D, M49I, S60T, K78R, H99M
VL: B1 VL with A9S, E12S, S30G, Y32S, P43R, S50A, R65S, G96S
B6: Ab7 (antibody, V domains shown)
VH: QSVEESGGRLVTPGTPLTLTCTVSGFSLSSYAMSWVRQAPGEGLEWIGIISDSGSTYYASWAKGRFTISKTSTTVDLRITSPTTEDTATYFCAREPEYGYDDYGDWVSDLWGQGTLVTVSS
VL: DIVMTQTPASVEAAVGGTVTIKCQASQSISDYLSWYQQKPGQPPKLLIYRASTLASGVPSRFKGSGSGTQFTLTISDLECADAATYYCQSYYYSSSITYRNAFGGGTEVVVKR
notes: as for B1
B7: Ab6 (antibody, V domains shown)
VH: B6 VH with S29T, S30D, I68F, D102E, Q113P
VL: B6 VL with T18A, S26T, S30G, D31N, Y32N, S34A, Q70E, R100H
B8: Ab9 (antibody, V domains shown)
VH: B6 VH with S29N, S55R, R78K, Q113P
VL: B6 VL with I2V, D31S
B9: Ab5 (antibody, V domains shown)
VH: B6 VH with R78K
VL: B6 VL with E12S, A13E, A14P, D31S
B10: Ab2 (antibody, V domains shown)
VH: B1 VH with K4E, N30K, M49I, K70Q, H99I, P102Q
VL: B1 VL with S31N, P40T, R65S, D92E, G96S
B11: Ab13 (antibody, human IgG1, kappa, N297A, V domains shown)
VH: QQLEESGGGLVKPGGTLTLTCTASGFSFSSGYDICWARQGPGKGLEWIGCIDTGSGNTYYASWAKGRFTMSRTSSTTVTLQVTSLTAADTATYFCAKGISSIWGPGTLVTVSS
VL: DIVMTQTPASVSEPVGGTVTIKCQASQTISSDLAWYQQKPGQPPKLLIYAASKLTSGVSSRFKGGGTGTQFTLTISDLECADAATYYCQTYYDIIDDGCTFGGGTEVVVKR
B12: Ab13.H (antibody, human IgG1, kappa, N297A, V domains shown)
VH: EVQLVESGGGLVQPGGSLRLSCAASGFTVSSGYDICWVRQAPGKGLEWIGCIDTGSGNTYYASSAKGRFTMSRDNSKNTVYLQMNSLRAEDTAVYYCAKGISSIWGQGTLVTVSS
VL: DIQMTQSPSTLSASVGDRVTITCQASQTISSDLAWYQQKPGKAPKLLIYAASKLTSGVPSRFSGSGSGTEFTLTISSLQPDDFATYYCQTYYDIIDDGATFGGGTKVEIKR

Biological target: T1, human ACTH 1-39
Experiment: cell-based or functional assay

Row | Binder | IC50, ACTH-induced cortisol, Y1 cells
1 | B1 | 2.36 nM
2 | B2 | 5.98 nM
3 | B3 | 7.72 nM
4 | B4 | 1.53 nM
5 | B5 | 2.68 nM
6 | B6 | 2.49 nM
7 | B7 | 1.44 nM
8 | B8 | 3.47 nM
9 | B9 | 3.49 nM

Biological target: T2, human alpha-MSH (ACTH 1-13)
Experiment: SPR (ProteOn XPR36), antibody immobilized
Experimental: (§1) Antibody was immobilized to the surface of general amine coupling (GLC or GLM) Chips (Bio-Rad). […] Surfaces were regenerated between analyte queries using 10 mM glycine at pH 2.0.

Row | Binder | kon
10 | B6 | 130000 M⁻¹ s⁻¹

Biological target: T1, human ACTH 1-39
Experiment: cell-based or functional assay
Remark: another data set of the same source

Row | Binder | IC50, ACTH-induced cAMP, MC2R cells
11 | B1 | 0.14 nM
12 | B2 | 0.16 nM
13 | B3 | 0.29 nM
14 | B4 | 0.03 nM
15 | B5 | 0.05 nM
16 | B10 | 0.25 nM
17 | B6 | 0.09 nM
18 | B7 | 0.03 nM
19 | B8 | 0.12 nM
20 | B9 | 0.11 nM

Biological target: T1, human ACTH 1-39
Experiment: cell-based or functional assay
Remark: another data set of the same source

Row | Binder | IC50, ACTH-induced cAMP, MC3R cells | IC50, ACTH-induced cAMP, MC4R cells | IC50, ACTH-induced cAMP, MC5R cells
21 | B1 | 101 nM | 56.4 nM | 1100 nM
22 | B2 | 133 nM | 66.3 nM | 5400 nM
23 | B3 | 58.7 nM | 54.2 nM | 1100 nM
24 | B4 | 108 nM | 49.4 nM | 4200 nM
25 | B10 | 79 nM | 54.5 nM | 1100 nM
26 | B6 | 64.2 nM | 49.7 nM | 1100 nM
27 | B7 | 62.8 nM | 55.2 nM | 1000 nM
28 | B9 | 58.1 nM | 43.4 nM | 1000 nM

Biological target: T1, human ACTH 1-39
Experiment: SPR (ProteOn XPR36), antibody immobilized
Experimental: as §1

Row | Binder | kon
29 | B1 | 1e+06 M⁻¹ s⁻¹

Biological target: T1, human ACTH 1-39
Experiment: cell-based or functional assay
Remark: another data set of the same source

Row | Binder | IC50, ACTH-induced cAMP reporter, MC1R cells
30 | B1 | 2.38 nM
31 | B2 | 2.14 nM
32 | B3 | 4.12 nM
33 | B4 | 1.49 nM
34 | B5 | 1.66 nM
35 | B10 | 3.62 nM
36 | B6 | 1.29 nM
37 | B7 | 1.04 nM
38 | B9 | 1.96 nM

Biological target: T3, ACTH 1-24
Experiment: cell-based or functional assay

Row | Binder | IC50, ACTH 1-24 induced cAMP, MC2R cells
39 | B3 | 0.8 nM
40 | B10 | 1.3 nM
41 | B11 | 1 nM
42 | B7 | 0.1 nM
43 | B12 | 0.3 nM
